In CN111718416A:

Target: 硫氧还蛋白(Thioredoxin，Trx)
Assay: indirect ELISA, Trx coated at 3 μg/ml, supernatant of transiently transfected CHO cells diluted 1000-fold, goat anti-mouse HRP

Sequence of 硫氧还蛋白(Thioredoxin，Trx) (P0AA25 2-109): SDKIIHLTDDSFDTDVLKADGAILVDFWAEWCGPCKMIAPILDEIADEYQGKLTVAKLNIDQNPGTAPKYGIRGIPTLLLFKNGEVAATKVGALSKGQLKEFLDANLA

B1: 实施例4的硫氧还蛋白的单克隆抗体(WT) (antibody, mouse IgG1, kappa, V domains shown)
VH: EVKLEESGGGLVQPGGSMKLSCAASGFTFSDGWMDWVRQSPEKGLEWVAELRNDAHNHRTYYAESLKGRFTISRDDSQSNVFLQMNSLRAEDTGIYYCTKRVPEGTGSWFAYWGQGTLVTVSA
VL: DIVMTQSPSSLGMSVGQKVTMSCKSSQSILNSINQKNYLAWYQQRPGQSPKLLVYFGSTRDSGVPDRFIGSGSGTDFTLTISSLQAEDLADYFCQQNYTTPPTFGGGTKLEIKR
OD (450nm, 参考630nm): > 1 OD
